Source: US20160090426A1 (WUHAN YZY BIOPHARMA, published 2016)

Key:
[1] = molecular target: T1, EpCAM on EpCAM-positive HCT116 cells (UniProt P16422 24-314, limits assumed); experiment: cell-based or functional assay
T1 sequence (looked up): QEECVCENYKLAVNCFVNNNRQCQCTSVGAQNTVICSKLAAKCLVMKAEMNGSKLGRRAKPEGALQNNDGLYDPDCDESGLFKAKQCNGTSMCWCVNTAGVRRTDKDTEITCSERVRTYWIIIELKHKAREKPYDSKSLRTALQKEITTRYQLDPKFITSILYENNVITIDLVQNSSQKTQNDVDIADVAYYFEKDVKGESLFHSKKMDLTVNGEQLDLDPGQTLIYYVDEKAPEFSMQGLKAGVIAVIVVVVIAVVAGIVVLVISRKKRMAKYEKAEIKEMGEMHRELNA

[2] = molecular target: CD3 on CD3-positive Jurkat cells; experiment: cell-based or functional assay
[3] = molecular target: T2, CD3 on CD3-positive Jurkat cells; experiment: flow cytometry on Jurkat cells, KD fitted from mean fluorescence intensity
T2 construct: whole, on cells
Protocol: (§1) Enough HCT116 cells are cultured, digested with 0.25% trypsin and then collected by centrifugation. In the meantime, the bispecific antibody was diluted according to the concentration beginning from 10 ug/ml and ten-fold gradient dilution to obtain twelve concentration gradients for later use.
Enough Jurkat suspension cells were cultured and collected by centrifugation. The same as the steps described in the example forementioned, in the following experimental process, the cells resuspended with 100 ul PBS were detected on an instrument, and the binding affinity KD value of the bispecific antibody and the Jurkat cells was analyzed and calculated according to the mean fluorescence intensity by using software GraphPadPrism 5.0.

[4] = molecular target: T1, EpCAM on EpCAM-positive HCT116 cells; experiment: flow cytometry on HCT116 cells, PE anti-human IgG Fc, KD fitted from mean fluorescence intensity
Protocol: as §1

B1: EpCAM×CD3 bispecific antibody M701 (bispecific antibody, human IgG1, kappa)
heavy: EVQLLEQSGAELVRPGTSVKISCKASGYAFTNYWLGWVKQRPGHGLEWIGDIFPGSGNIHYNEKFKGKATLTADKSSSTAYMQLSSLTFEDSAVYFCARLRNWDEPMDYWGQGTTVTVSSASTKGPSVFPLAPSSKSTSGGTAALGCLVKDYFPEPVTVSWNSGALTSGVHTFPAVLQSSGLYSLSSVVTVPSSSLGTQTYICNVNHKPSNTKVDKKVEPKSCDKTHTCPPCPAPELLGGPSVFLFPPKPKDTLMISRTPEVTCVVVDVSHEDPEVKFNWYVDGVEVHNAKTKPREEQYNSTYRVVSVLTVLHQDWLNGKEYKCKVSNKALPAPIEKTISKAKGQPREPQVYTLPPSRDELTKNQVSLWCLVKGFYPSDIAVEWESNGQPENNYDTTPPVLDSDGSFFLYSDLTVDKSRWQQGNVFSCSVMHEALHNHYTQKSLSLSPGK
light: ELVMTQSPSSLTVTAGEKVTMSCKSSQSLLNSGNQKNYLTWYQQKPGQPPKLLIYWASTRESGVPDRFTGSGSGTDFTLTISSVQAEDLAVYYCQNDYSYPLTFGAGTKLEIKRTVAAPSVFIFPPSDEQLKSGTASVVCLLNNFYPREAKVQWKVDNALQSGNSQESVTEQDSKDSTYSLSSTLTLSKADYEKHKVYACEVTHQGLSSPVTKSFNRGEC
chain: not shown
notes: Heterodimer of one anti-EpCAM heavy/light chain pair (IgG form) and one anti-CD3 ScFv-Fc; also called EpCAM×CD3 MSBODY; EpCAM×CD3 MSBODY bispecific antibody
**Q.** How did the “ratio of bifluorescence via flow cytometer detection (double positive CFSE-HCT116 / PKH-26-Jurkat cells)” value [1] turn out when B1 was run?
**A.** 27.5%

**Q.** What about the “ratio of bifluorescence via flow cytometer detection (double positive CFSE-HCT116 / PKH-26-Jurkat cells)” value [2] of the same binder?
**A.** 27.5%

**Q.** What about the Kd [3] of the same binder?
**A.** 14.3 nM

**Q.** What about the Kd [4] of the same binder?
**A.** 9.6 nM
